The record followed here is patent publication US10253089B2, “Matrix metalloproteinase cleavable protein polymers for cancer gene therapy” (The University of Utah Research Foundation, priority 2012, dated 2019).

The target in one data set is MMP-9 (Homo sapiens, UniProt P14780). The experiment in a line: Enzymatic digest of polymer by MMP-9, SDS-PAGE. It is filed as biochemical. The conditions noted are these: 1 mg/ml polymer, 10 nM and 40 nM MMP-9, 2-48 hours, room temperature. On the procedure:
(§1) This buffer recipe is sourced from the Molecular Probes EnzChek Gelatinase/Collagenase Assay Kit (Invitrogen, Carlsbad, Calif.), which was used to confirm the activity of MMP-2 and MMP-9 prior to use. 2× Laemmli Buffer was supplemented with 5% β-mercaptoethanol and added 1:1 by volume to the polymer solutions, which were then placed in a PCR thermal cycler and heated to 95° C. for five minutes to denature the protein. 25 μl of each sample was added to 4-15% Bis-Tris precast PAGE gel and electrophoresis was performed at 200V until the dye front reached the bottom of the gel, approximately 30 minutes. Kaleidoscope protein standard was used as a molecular weight marker. Following electrophoresis, gels were stained with GelCode Blue (colloidal Coomassie formulation) following manufacturer's instructions for staining and destaining.
(§2) 100 μl samples of each polymer were digested with a final concentration of 10 nM and 40 nM MMP-2 or MMP-9. MMP samples were incubated at room temperature for 2, 4, 12, 24, 36, and 48 hours and samples were run on PAGE gels and stained with GelCode Blue to visualize band patterns corresponding to protein degradation.
(§3) Additionally, this digestion is dependent on both time of exposure and concentration of MMP.

Data set [1] in a line: Dynamic mechanical analysis (DMA) of SELP hydrogels. It is filed as physicochemical. To be noted: 12 wt % hydrogels. The text has this:
It was predicted that polymer structure would also play a large role in the mechanical properties of the hydrogels. Dynamic mechanical analysis (DMA) was used to examine hydrogels made from each of the SELP analogues, and as predicted, there was a strong dependence of the results on the silk and elastin content of the polymers, and the arrangement of the silk and elastin blocks. […] This is opposite the order observed in the swelling studies, which is to be expected assuming the crosslinking density decreases with increasing swelling and decreasing mechanical properties for analogous materials. The legend for the graph shown in FIG. 8 is as follows: triangles: SELP-47K, squares: SELP-815K, diamonds: SELP-415K. Highly controlled structure in SELPs allows fine-tuning of mechanical properties.
To gain further insight into the hydrogel pore structure, network properties were examined as a function of polymer sequence by small angle neutron scattering (SANS) techniques (FIG. 9). SANS allows the examination of microstructures in the range 1-100 nm through the analysis of elastic neutron scattering. […] The calculated correlation length (Table 3) depicts a trend in the observation that are in the order SELP-415K>SELP-815K>SELP-47K. […]

For a further data set, the target named is T1, MMP-2 (Homo sapiens, UniProt P08253).
T1 sequence (P08253 110-660): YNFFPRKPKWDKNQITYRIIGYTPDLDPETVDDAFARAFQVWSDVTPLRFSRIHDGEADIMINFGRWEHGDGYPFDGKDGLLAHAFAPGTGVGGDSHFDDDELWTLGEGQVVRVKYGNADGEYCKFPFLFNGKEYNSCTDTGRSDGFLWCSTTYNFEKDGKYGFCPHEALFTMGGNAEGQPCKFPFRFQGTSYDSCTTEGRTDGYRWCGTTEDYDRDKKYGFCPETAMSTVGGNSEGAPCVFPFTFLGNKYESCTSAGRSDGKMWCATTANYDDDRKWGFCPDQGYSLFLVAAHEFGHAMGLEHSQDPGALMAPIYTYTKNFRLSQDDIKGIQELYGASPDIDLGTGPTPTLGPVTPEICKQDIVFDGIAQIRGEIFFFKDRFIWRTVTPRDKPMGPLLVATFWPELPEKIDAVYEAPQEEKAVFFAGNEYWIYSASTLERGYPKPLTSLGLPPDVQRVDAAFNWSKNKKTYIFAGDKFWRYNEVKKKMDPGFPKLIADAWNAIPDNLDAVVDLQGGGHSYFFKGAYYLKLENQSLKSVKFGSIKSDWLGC
The data set can be described thus: Enzymatic digest of polymer by MMP-2, SDS-PAGE. It is filed as biochemical. The conditions noted are these: 1 mg/ml polymer, 10 nM and 40 nM MMP-2, 2-48 hours, room temperature. On the procedure:
as §1, §2, §3

The next data set relates to JHU-022 tumors. The experiment in a line: GDEPT (HSV-tk/GCV) efficacy study, tumor size and luciferase imaging. The conditions noted are these: 4 wt % with virus + GCV. Type of data set: in vivo, nude mice. The procedure:
In order to fully illustrate the potential of SELP as an injectable, in situ gel forming delivery system for the treatment of HNSCC solid tumors, a study was performed on the efficacy of this system using a GDEPT approach. The system chosen was herpes simplex virus thymidine kinase (HSV-tk) as the enzyme, and ganciclovir (GCV) as the prodrug. To accomplish this, a custom adenoviral construct was designed and used for this study. The construct contained genes which encode for HSV-tk and genes which encode for luciferase, a common reporter enzyme. This novel construct allowed both efficacy and biodistribution to be assessed simultaneously in vivo. Specifically, by combining these two genes in one virus, it becomes possible to track the location of transfection while simultaneously evaluating the efficacy of the treatment.
Appropriate controls were included. Luciferase expression was measured by injecting luciferin potassium salt intraperitoneally, and following appropriate time to allow distribution of luciferin the animals were imaged using a Xenogen IVIS100 imaging system (Caliper Life Sciences, Hopkinton, Mass.) which allows visualization of luciferase expression without sacrificing the animal. As a measure of efficacy the tumors were measured with calipers every 3 to 4 days. […]

Chain of MMP-9 (P14780 94-707): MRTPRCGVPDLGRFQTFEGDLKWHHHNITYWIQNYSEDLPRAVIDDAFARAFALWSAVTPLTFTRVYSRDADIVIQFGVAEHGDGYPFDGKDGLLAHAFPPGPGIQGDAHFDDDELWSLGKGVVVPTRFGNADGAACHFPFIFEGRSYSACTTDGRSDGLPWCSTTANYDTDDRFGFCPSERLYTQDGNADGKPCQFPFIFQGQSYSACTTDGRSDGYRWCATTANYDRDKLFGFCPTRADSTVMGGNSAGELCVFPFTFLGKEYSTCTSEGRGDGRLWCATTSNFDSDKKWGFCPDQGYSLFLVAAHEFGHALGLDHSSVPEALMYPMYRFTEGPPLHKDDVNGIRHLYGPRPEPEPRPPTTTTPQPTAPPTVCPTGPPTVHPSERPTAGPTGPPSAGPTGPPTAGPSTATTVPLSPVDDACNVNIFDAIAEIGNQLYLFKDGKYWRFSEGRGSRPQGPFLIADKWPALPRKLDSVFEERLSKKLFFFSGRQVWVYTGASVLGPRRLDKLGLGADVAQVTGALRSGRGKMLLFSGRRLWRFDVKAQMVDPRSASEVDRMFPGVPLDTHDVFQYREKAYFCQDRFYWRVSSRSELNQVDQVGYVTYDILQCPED

B1: SELP815K: silk-elastin-like protein polymer, longer silk units, fifteen elastin units, lysine elastin unit; monomer repeated 6 times (SEQ ID NO. 21) (protein)
chain: MDPVVLQRRDWENPGVTQLNRLAAHPPFASDPMGAGSGAGAGSGAGAGSGVGVPGVGVPGVGVPGVGVPGKGVPGVGVPGVGVPGVGVPGVGVPGVGVPGVGVPGVGVPGVGVPGVGVPGVGVPGVGVPGAGAGSGAGAGSGAGAGSGAGAGSGAGAGSGAGAGAGSGAGAGSGAGAGSGVGVPGVGVPGVGVPGVGVPGKGVPGVGVPGVGVPGVGVPGVGVPGVGVPGVGVPGVGVPGVGVPGVGVPGVGVPGVGVPGAGAGSGAGAGSGAGAGSGAGAGSGAGAGSGAGAGAGSGAGAGSGAGAGSGVGVPGVGVPGVGVPGVGVPGKGVPGVGVPGVGVPGVGVPGVGVPGVGVPGVGVPGVGVPGVGVPGVGVPGVGVPGVGVPGAGAGSGAGAGSGAGAGSGAGAGSGAGAGSGAGAGAGSGAGAGSGAGAGSGVGVPGVGVPGVGVPGVGVPGKGVPGVGVPGVGVPGVGVPGVGVPGVGVPGVGVPGVGVPGVGVPGVGVPGVGVPGVGVPGAGAGSGAGAGSGAGAGSGAGAGSGAGAGSGAGAGAGSGAGAGSGAGAGSGVGVPGVGVPGVGVPGVGVPGKGVPGVGVPGVGVPGVGVPGVGVPGVGVPGVGVPGVGVPGVGVPGVGVPGVGVPGVGVPGAGAGSGAGAGSGAGAGSGAGAGSGAGAGSGAGAGAGSGAGAGSGAGAGSGVGVPGVGVPGVGVPGVGVPGKGVPGVGVPGVGVPGVGVPGVGVPGVGVPGVGVPGVGVPGVGVPGVGVPGVGVPGVGVPGAGAGSGAGAGSGAGAGSGAGAGSGAGAGSGAGAMDPGRYQDLRSHHHHHH
modifications: monomer repeated 6 times; Hybrid of Homo sapein and Bombyx mori
B1: in the data set with MMP-9, the “digestion by MMP-9” value is given as “is not”. Further, the storage modulus result in data set [1] was “falls between those of SELP47K and 415K”. Moreover, the “digestion by MMP-2” value with MMP-2 is given as “is not”. Moreover, the “tumor regrowth / recovery observation” value with JHU-022 tumors (out to day 33) is “full recovery, with no evidence of a tumor out to day 33”. Further, the “reduction in tumor size compared to virus in saline” value in the data set with JHU-022 tumors (over 33 days) was determined as 3 fold.
